Results from the supplement of paper PMC12636428.

tested on: Saccharomyces cerevisiae; test: transcriptional activation domain activity (GFP:mCherry ratio, weighted mean of sorted bins, harmonized to initial dataset scale) (arbitrary fluorescence ratio units); higher = stronger transcriptional activation; conditions: beta-estradiol 1 µM; induction time 4 h
How it was run: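 Values are activation activity, found as the read-weighted mean of bin median fluorescence, averaged across barcodes and then mapped linearly onto the initial dataset scale. Barcoded protein tiles fused to an estradiol-inducible synthetic transcription factor were integrated at the URA3 locus of GFP-reporter yeast diploids. Cells were induced for 4 hours at 30 °C with 1 uM beta-estradiol in SC, sorted into 8 bins by GFP:mCherry ratio, and barcode-sequenced, with tiles under 50 reads discarded.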

Row | Sequence | transcriptional activation domain activity
1 | MGKRRRLLAKAQPKSGGSTSAKHHPQQGTGKAVAARGQKPQKQQGAPRNGSNG | 21900
2 | YLAGPRVPFAPLSLPGIFLPTTWWNPGVFYFWTWRNHFYKTWGETVGFAPWFS | 80500
3 | AVRLLSTKKISMSQANIGQTYFAHYCLSLLRLARYALSTMIKMFGPVYGWWLF | 64300
4 | GSSAFGASGSSGGAFGQPAAQQQQSAFGGGGGLFGKPQGSSFGSTALATTAGQ | 55800
5 | GGLFGAKPATTGGLFGSTPAAQPAQTGGLFGGGGTTGGFGASTTGGAFGSTPA | 48500
6 | NWYFLGTTMYFLYGESVIYYFKHIVLVDKVLLPFATHHRFISFMLYVIGFVFF | 59100
7 | IWVHHVAYVRNCLAQLIFTWLDEYWRPLSDACILPRLRSWVLSRFRDAQLVQG | 78700
8 | EEEEQAKTSPAKSESKKEKKDKKKKRSADEIESGPEGTPKVAKKIKADSGAAV | 42700
9 | TDPKPITDNGKNVPLDEIESLEIPNLDLTTTMNGYDVNLLMQNLNDMVNMKLH | 91600
10 | AQSTSVVLVFGSDEKKVKEIGEGLKSKLGIKGGGKGTRWSGKFTGVWKDAREG | 46700
11 | MKAEYITLINLLVHPSFVLWESPLPTLSFFFFFFFFLAWSPFRVFSLFVIPSL | 50300
12 | MVMVKIPFLLAFVYLFLVLHSHVLVHSFRNFTSLLVFACLLGVGMWRCVWTQM | 58000
13 | KYLFQSQRFGGHFFQIQVVLRDIEKYLEEVHQFMLQVNIMVLGFHAMLDKAFQ | 55900
14 | LSSSVPIEAETFSSFRPDMNMTMNMNLHNASTSSFNNEAFWKPLDSAIDHHSG | 53500
15 | ARGMYLMVDVVANQFGILCSRADGTSIDDFDFSGLWPFSSSSYFHPMCWLYWL | 64000
16 | VGVWIWVRVDLLSYRKAGFIDWLFTDVPPKLALIAIFNVHILHTLLLALQWYT | 55400
17 | MPHYNSFNMDFSKLRNACGIVLLHWRRYRRILWLIAKNFMRLRGLVSLFDSGP | 48600
18 | SSSKKRKAVEVEEEEEEEEEEEEPVEEPEVEKEKEIVAAPVAKKAKVTAAATS | 29300
19 | FFEVGGVPRFQETVIAGGDNSVGRALSSPTVIYSGKHDGIALTIIRLLRPIWL | 53400
20 | MFAKILVLSWFDSIRWGLFLLLCVMGVFLLFDIPFSFSLLVFSAWYFLFFSRR | 33800
21 | MKTPPPQLGFFVGVLVLYAFFFIFLFFYFLFYGDIHLKQEDIIYVWNTYWAIW | 20200
22 | KFNLLEWSEILSLLTCYRLLIAMYSFRSLVIVIASYIVFGLSVFSLLVRLLFL | 38100
23 | PYQSSVDVLPRPLPVLRWTWVIVGISCFYFWCVSIPAPFLLFRICFPHFNLLT | 50500
24 | MAHLAYHPLYPLWDLLSHTLIMLIFLITLICLLCPFPSLFIFTPICLSVYLLI | 27200
25 | VANILCLSTSLLACSMVFWSIPSWYYLVSHYQEWMPHVILPLYLLWWLFMMLV | 39200
26 | MVNCLKVFLVVLLAPIPLAPPIFLLSFLALMVVDHEPCPYCSLLIILLLQSTC | 31200

Row | Sequence | transcriptional activation domain activity
27 | ESPSQINDFIPQKLIIEPNTLELNGLTEETPHDLPKNTAKGRDEEDFPLDYFP | 55200
28 | NIFMLVFWSLALIYWSMFVIIPSIFNYFSPYHYSRWKVVLVNVGTFVWNLATC | 61300
29 | YLINLLYQLLWLVPFSAPLSLRSTLAKVYEFGGVHSGSAICSVLWFILLTVFL | 64900
30 | AYTATNVGIPFNRAMDHLHRMMSRFEYCIFEGTSLPVFGIIGLQVRCQWLGCS | 73700
31 | AIATPVCAAGDFPGNLLLHHSITIPFIYVTLSFFYIFALFLFFLLSIFLVAWL | 50300
32 | PMRLHVDHVHVVGRPFLWYIIVAMCDNVTHVVLSFSGLTYYTTSRWFESIPYR | 61200
33 | HYFLVIMVLGMIELLRFPETRDAGVSLIRELLAFKFAKTSWDVVICNQLEKYL | 41300
34 | MIGHDYLLVVVPIPILSLLHVSLLPYFFYFFVLVLVFLYLFLLRFLSFLLLLL | 65700
35 | YDTPSLQMMTIHKSFFGIVNDDTFHWKGLSKLSLDSVPGCRLLSILLLCSATL | 73200
36 | PQSEKSFKSAKNAPEKRAEERPRRRKTCARQNMRTNTNAAHTAHATGAITRRI | 30100
37 | MPAIFFGSQIGGETLQPLSYTGLPWKLLIQDILLFLRWCYYLPNIVIPLWPWP | 67400
38 | LELPDNLDNADFSKLLEFDAKNDEALFNSNELLSHTMDPVNNIDLTHDHSREV | 93000
39 | MKFLPFRFADLQANNFILFYFLYLMLACYLYPICIYTGKLFVIFPFIFLFFVP | 55000
40 | MLKLCFFCAFLFLFLIIYYIYIFCFFFPFSLPSFSFFSFIPALIFFFFVVVEP | 48200
41 | GVDDADHEEEEEEEEEEEQEGARYGALMGGLGVAQGAMRILAPAVAGGVYAVS | 67300
42 | MFVNLFFSLLTPICTLCFFCNPLSLPLPFFPSHLFPLFSILPLLFFFFFLCCY | 46200
43 | GGKRKGEQGHGAGQRGKGDGQGRGGRGRGRGEGGEEKGRRAERKEERGRRGRS | 16300
44 | VTSAKPVQNAGKSRPTSPKPKNVEEREEEKPEVKPVAASPVKATPAPTAAAPV | 29000
45 | VARVVNVFLWSMAVTFFLLVMHRITVYRAQQLYITTYCDPYFPIYPLRRILPQ | 45400
46 | MRSSLPKLYRYGCLYWITGLCIFVYILYERRYYCCHNMPYFFHQPWFLCLSSL | 68800
47 | MSSLPLFPVLSSSLCFPLPPSLPLSSPPSVSPFPPFSLFPPLPLFSPFPPSIS | 38900
48 | MFCLRSWLPLLFIPTNAPPIFIFIFFFLNFFLSRPCVYCSFLLLILCLTSCYW | 36600
49 | MTRMLPLSFELFKFIVNLCLALVFTSWLFSWSKMLLILGLICVCRDFLSLVIV | 31700
50 | EDAEATPAAAVEAEDDAMVVDSEEPKKKSKKDKKEKKDKKRKAAETTEAETAN | 16400
51 | PCPETSTPPPPPPKPTTAYPPPKSSEAPPPPPPKPTTAYPPPPKSSEAPPPPP | 47900
52 | PAASTTHATAAPPAAPSPPSQTTPSAPATAASAPRTSPRPCASSCTSSATSRS | 31600
